This note sets out measurements from ChEMBL document CHEMBL1122067, “Species- or isozyme-specific enzyme inhibitors. 4. Design of a two-site inhibitor of adenylate kinase with isozyme selectivity” (J Med Chem, 1982).

As usually defined, the Km is the concentration of substrate that gives half-maximal velocity.

Compound in data set [1]: CCSc1nc2c(N)ncnc2n1[C@@H]1O[C@H](COP(=O)(O)O)[C@@H](O)[C@H]1O
Briefly: Inhibitory constant of rat adenylate kinase (AK II) isozymes expressed as relative maximal velocity.

Compound in data set [2]: CC(=O)NCCCCCCCCNc1ncnc2c1ncn2C1O[C@H](COP(=O)(O)O)[C@@H](O)[C@H]1O
The data set is described as follows: (§1) Inhibitory constant of rat adenylate kinase (AK III) isozymes expressed as relative maximal velocity.

Compound in data set [3]: CCCCN(CCCC)c1ncnc2c1ncn2C1O[C@H](COP(=O)(O)OP(=O)(O)OP(=O)(O)O)[C@@H](O)[C@H]1O
The description is as §1.

Compound in data set [4]: CCCCNc1ncnc2c1ncn2C1O[C@H](COP(=O)(O)OP(=O)(O)OP(=O)(O)O)[C@@H](O)[C@H]1O
The description is as §1.

Compound in data set [5]: CCCCSc1ncnc2c1ncn2C1O[C@H](COP(=O)(O)OP(=O)(O)OP(=O)(O)O)[C@@H](O)[C@H]1O
The data set is described as §1.

Compound in data set [6]: Nc1ncnc2c1ncn2[C@@H]1O[C@H](COP(=O)(O)O)[C@@H](O)[C@H]1O
The description is as §1.

Compound in data set [7]: O=C(CI)NCCCCCNc1ncnc2c1ncn2C1O[C@H](COP(=O)(O)OP(=O)(O)OP(=O)(O)O)[C@@H](O)[C@H]1O
The description is as §1.

Substrate in data set [8]: CC(=O)NCCNc1ncnc2c1ncn2C1O[C@H](COP(=O)(O)O)[C@@H](O)[C@H]1O
Briefly: Rat Adenylate kinase III and maximal velocity was determined.

Substrate in data set [9]: CCCCNc1ncnc2c1ncn2C1O[C@H](COP(=O)(O)OP(=O)(O)OP(=O)(O)O)[C@@H](O)[C@H]1O
The data set is described as follows: (§2) Concentration for half-maximal velocity for adenylate kinase (AK III) was determined.

Substrate in data set [10]: CCCCSc1ncnc2c1ncn2C1O[C@H](COP(=O)(O)OP(=O)(O)OP(=O)(O)O)[C@@H](O)[C@H]1O
Described as §2.

Substrate in data set [11]: Nc1ncnc2c1ncn2[C@@H]1O[C@H](COP(=O)(O)O)[C@@H](O)[C@H]1O
Described as §2.

Substrate in data set [12]: O=C(CI)NCCCCCNc1ncnc2c1ncn2C1O[C@H](COP(=O)(O)OP(=O)(O)OP(=O)(O)O)[C@@H](O)[C@H]1O
The data set is described as §2.

B1: GTP:AMP phosphotransferase AK3, mitochondrial (Rattus norvegicus), P29411 (protein)
chain: MGASGRLLRAVIMGAPGSGKGTGSSRITKHFELKHLSSGDLLRQNMLQGTEIAVLAKSFIDQGKLIPDDDMTRLALHELKNLTQCSWLLDGFPRTLPQAEALDRVYQIDTVINLNVPFEVIKLRLTARWIHPASGRVYNIEFNPPKTVGIDDLTGEPLIQREDDKPETVIKRLKAYEAQTEPVLQYYQKKGVLETFSGTETNKIRPHVYSFLQMKVPETIQKASVTP
B1: the Vmax in [1] came out at 0%; in data set [2], 0%; in data set [3], 0%; in [4], 25%; in data set [5] it was 57%; in [6], 100%. Besides, the Vmax in data set [7] stood at 9%; in data set [8] it was 0%. Further, the Km in [9] came to 1200 µM; in data set [10], 1450 µM; in data set [11], 90 µM; in [12], 400 µM.
